From publication PMC3166965 come the findings set out here.

Sequences and labels used below:
B1: hSLIV 2AP9 (structured_RNA)
RNA: GGCCGUAUUGCAGUACCUCGGCC
modifications: 2-aminopurine at position 15 (loop A9), written as A
B2: hSLIV 9 bp stem (structured_RNA)
RNA: GGGCCCGGUAUUGCAGUACCUCCGGGUCC
B3: hSLII (structured_RNA)
RNA: GGGCUGCCAUUGCACCUCGGCGGUCC
B4: hSLIV 6 bp stem (structured_RNA)
RNA: GGACCUAUUGCAGUACCUGGUCC
B5: dSLIV (structured_RNA)
RNA: GGGCCCGGUAUUGCAGUACCGCCGGGUCC
B6: dSLIV 2AP9 (structured_RNA)
RNA: GGCCGUAUUGCAGUACCGCGGCC
modifications: 2-aminopurine at position 15 (loop A9), written as A

One series deals with T1, U2B" (Homo sapiens, UniProt P08579 1-225). As to the kind of experiment: filter binding.
T1 sequence (P08579 whole entry): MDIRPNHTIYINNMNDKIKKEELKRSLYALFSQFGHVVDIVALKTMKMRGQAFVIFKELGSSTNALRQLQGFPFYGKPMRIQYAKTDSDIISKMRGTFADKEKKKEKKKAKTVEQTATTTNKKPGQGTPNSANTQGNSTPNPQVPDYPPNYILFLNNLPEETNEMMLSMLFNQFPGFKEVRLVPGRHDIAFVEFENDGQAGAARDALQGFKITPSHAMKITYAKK
B1 yielded a Kd of 2 nM.
On the same count and under the same terms, to B2 belongs 1 nM.
B3 yielded a Kd of 2.1 nM.
B4 yielded a Kd of 2 nM. This Kd and that of the molecule before are within 1.5-fold of each other.
Same read-out and setting: to B5 belongs 2 nM.

The target in a further series is T1, U2B". The experiment in a line: filter binding. The source holds these as a separate data set.
With B6, the binding result is listed as “binds”.

In general, Kd refers to the equilibrium constant for the complex coming apart. Read a low Kd as tighter binding.
